In patent US20240270846A1 (published 2024):

Target: T1, CD3 epsilon homodimer protein (UniProt P07766 23-126)
T1 construct: Construct of the homodimer is not described; also called CD3 (CD3 epsilon)
Assay: SPR Biacore T200, CD3e homodimer on chip, antibody analyte;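 further: CD3 epsilon homodimer amine-coupled on CM4 sensor chip, antibodies injected as analyte at 25 °C in HBS-EP+, ratio ≥0.8 taken as binding retained versus unaltered parent antibody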

T1 sequence (P07766 23-126): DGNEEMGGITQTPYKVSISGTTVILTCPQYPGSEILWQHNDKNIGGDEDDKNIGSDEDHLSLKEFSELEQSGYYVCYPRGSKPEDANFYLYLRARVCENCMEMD

ratio of amounts bound (altered form/GLS3000)	Binder
0.44	GLS3000 V94M one-arm antibody (antibody, human IgG1, kappa, L234A L235A, N297A, name in Kabat numbering) light: DIVMTQSPLSLPVTPGEPASISCRSSQSLVHSNRNTYLHWYQQKPGQAPRLLIYKVSNRFSGVPDRFSGSGSGTDFTLKISRVEAEDVGVYYCGQGTQMPYTFGQGTKLEIKRTVAAPSVFIFPPSDEQLKSGTASVVCLLNNFYPREAKVQWKVDNALQSGNSQESVTEQDSKDSTYSLSSTLTLSKADYEKHKVYACEVTHQGLSSPVTKSFNRGEC heavy: QVQLVESGGGVVQPGRSLRLSCAASGFTFSNAWMHWVRQAPGKGLEWVAQIKAKSNNYATYYAESVKGRFTISRDDSKNSLYLQMNSLKTEDTAVYYCRYVHYGAYYGVDAWGQGTTVTVSSASTKGPSVFPLAPSSKSTSGGTAALGCLVKDYFPEPVTVSWNSGALTSGVHTFPAVLQSSGLYSLSSVVTVPSSSLGTQTYICNVNHKPSNTKVDKKVEPKSCDKTHTCPPCPAPEAAGGPSVFLFPPKPKDTLMISRTPEVTCVVVDVSHEDPEVKFNWYVDGVEVHNAKTKPREEQYASTYRVVSVLTVLHQDWLNGKEYKCKVSNKALPAPIEKTISKAKGQPREPQVYTLPPSRCELTKNQVSLSCAVKGFYPSDIAVEWESNGQPENNYKTTPPVLDSDGSFFLVSKLTVDKSRWQQGNVFSCSVMHEALHNHYTQKSLSLSPDYKDDDDK EPKSSDKTHTCPPCPAPELLGGPSVFLFPPKPKDTLMISRTPEVTCVVVDVSHEDPEVKFNWYVDGVEVHNAKTKPREEQYNSTYRVVSVLTVLHQDWLNGKEYKCKVSNKALPAPIEKTISKAKGQPREPQVCTLPPSRDELTKNQVSLWCLVKGFYPSDIAVEWESNGQPENNYKTTPPVLDSDGSFFLYSKLTVDKSRWQQGNVFSCSVMHEALHNRYTQKSLSLSP
0.76	GLS3000 V94Q one-arm antibody (antibody, human IgG1, kappa, L234A L235A, N297A, name in Kabat numbering) light: DIVMTQSPLSLPVTPGEPASISCRSSQSLVHSNRNTYLHWYQQKPGQAPRLLIYKVSNRFSGVPDRFSGSGSGTDFTLKISRVEAEDVGVYYCGQGTQQPYTFGQGTKLEIKRTVAAPSVFIFPPSDEQLKSGTASVVCLLNNFYPREAKVQWKVDNALQSGNSQESVTEQDSKDSTYSLSSTLTLSKADYEKHKVYACEVTHQGLSSPVTKSFNRGEC heavy: QVQLVESGGGVVQPGRSLRLSCAASGFTFSNAWMHWVRQAPGKGLEWVAQIKAKSNNYATYYAESVKGRFTISRDDSKNSLYLQMNSLKTEDTAVYYCRYVHYGAYYGVDAWGQGTTVTVSSASTKGPSVFPLAPSSKSTSGGTAALGCLVKDYFPEPVTVSWNSGALTSGVHTFPAVLQSSGLYSLSSVVTVPSSSLGTQTYICNVNHKPSNTKVDKKVEPKSCDKTHTCPPCPAPEAAGGPSVFLFPPKPKDTLMISRTPEVTCVVVDVSHEDPEVKFNWYVDGVEVHNAKTKPREEQYASTYRVVSVLTVLHQDWLNGKEYKCKVSNKALPAPIEKTISKAKGQPREPQVYTLPPSRCELTKNQVSLSCAVKGFYPSDIAVEWESNGQPENNYKTTPPVLDSDGSFFLVSKLTVDKSRWQQGNVFSCSVMHEALHNHYTQKSLSLSPDYKDDDDK EPKSSDKTHTCPPCPAPELLGGPSVFLFPPKPKDTLMISRTPEVTCVVVDVSHEDPEVKFNWYVDGVEVHNAKTKPREEQYNSTYRVVSVLTVLHQDWLNGKEYKCKVSNKALPAPIEKTISKAKGQPREPQVCTLPPSRDELTKNQVSLWCLVKGFYPSDIAVEWESNGQPENNYKTTPPVLDSDGSFFLYSKLTVDKSRWQQGNVFSCSVMHEALHNRYTQKSLSLSP
1.05	GLS3000 V94N one-arm antibody (antibody, human IgG1, kappa, L234A L235A, N297A, name in Kabat numbering) light: DIVMTQSPLSLPVTPGEPASISCRSSQSLVHSNRNTYLHWYQQKPGQAPRLLIYKVSNRFSGVPDRFSGSGSGTDFTLKISRVEAEDVGVYYCGQGTQNPYTFGQGTKLEIKRTVAAPSVFIFPPSDEQLKSGTASVVCLLNNFYPREAKVQWKVDNALQSGNSQESVTEQDSKDSTYSLSSTLTLSKADYEKHKVYACEVTHQGLSSPVTKSFNRGEC heavy: QVQLVESGGGVVQPGRSLRLSCAASGFTFSNAWMHWVRQAPGKGLEWVAQIKAKSNNYATYYAESVKGRFTISRDDSKNSLYLQMNSLKTEDTAVYYCRYVHYGAYYGVDAWGQGTTVTVSSASTKGPSVFPLAPSSKSTSGGTAALGCLVKDYFPEPVTVSWNSGALTSGVHTFPAVLQSSGLYSLSSVVTVPSSSLGTQTYICNVNHKPSNTKVDKKVEPKSCDKTHTCPPCPAPEAAGGPSVFLFPPKPKDTLMISRTPEVTCVVVDVSHEDPEVKFNWYVDGVEVHNAKTKPREEQYASTYRVVSVLTVLHQDWLNGKEYKCKVSNKALPAPIEKTISKAKGQPREPQVYTLPPSRCELTKNQVSLSCAVKGFYPSDIAVEWESNGQPENNYKTTPPVLDSDGSFFLVSKLTVDKSRWQQGNVFSCSVMHEALHNHYTQKSLSLSPDYKDDDDK EPKSSDKTHTCPPCPAPELLGGPSVFLFPPKPKDTLMISRTPEVTCVVVDVSHEDPEVKFNWYVDGVEVHNAKTKPREEQYNSTYRVVSVLTVLHQDWLNGKEYKCKVSNKALPAPIEKTISKAKGQPREPQVCTLPPSRDELTKNQVSLWCLVKGFYPSDIAVEWESNGQPENNYKTTPPVLDSDGSFFLYSKLTVDKSRWQQGNVFSCSVMHEALHNRYTQKSLSLSP
1.26	GLS3000 V94P one-arm antibody (antibody, human IgG1, kappa, L234A L235A, N297A, name in Kabat numbering) light: DIVMTQSPLSLPVTPGEPASISCRSSQSLVHSNRNTYLHWYQQKPGQAPRLLIYKVSNRFSGVPDRFSGSGSGTDFTLKISRVEAEDVGVYYCGQGTQPPYTFGQGTKLEIKRTVAAPSVFIFPPSDEQLKSGTASVVCLLNNFYPREAKVQWKVDNALQSGNSQESVTEQDSKDSTYSLSSTLTLSKADYEKHKVYACEVTHQGLSSPVTKSFNRGEC heavy: QVQLVESGGGVVQPGRSLRLSCAASGFTFSNAWMHWVRQAPGKGLEWVAQIKAKSNNYATYYAESVKGRFTISRDDSKNSLYLQMNSLKTEDTAVYYCRYVHYGAYYGVDAWGQGTTVTVSSASTKGPSVFPLAPSSKSTSGGTAALGCLVKDYFPEPVTVSWNSGALTSGVHTFPAVLQSSGLYSLSSVVTVPSSSLGTQTYICNVNHKPSNTKVDKKVEPKSCDKTHTCPPCPAPEAAGGPSVFLFPPKPKDTLMISRTPEVTCVVVDVSHEDPEVKFNWYVDGVEVHNAKTKPREEQYASTYRVVSVLTVLHQDWLNGKEYKCKVSNKALPAPIEKTISKAKGQPREPQVYTLPPSRCELTKNQVSLSCAVKGFYPSDIAVEWESNGQPENNYKTTPPVLDSDGSFFLVSKLTVDKSRWQQGNVFSCSVMHEALHNHYTQKSLSLSPDYKDDDDK EPKSSDKTHTCPPCPAPELLGGPSVFLFPPKPKDTLMISRTPEVTCVVVDVSHEDPEVKFNWYVDGVEVHNAKTKPREEQYNSTYRVVSVLTVLHQDWLNGKEYKCKVSNKALPAPIEKTISKAKGQPREPQVCTLPPSRDELTKNQVSLWCLVKGFYPSDIAVEWESNGQPENNYKTTPPVLDSDGSFFLYSKLTVDKSRWQQGNVFSCSVMHEALHNRYTQKSLSLSP
